Results taken from patent publication US20120316071A1.
Where a chain is given by its changes, count along the chain named. In names and notes the source's numbering stands. Blank lines part the entries; values can stand above or below the binder they belong to.

Key:
[1] = target: rHuman P-Cadherin/Fc Chimera, CF (R&D Systems Cat#861-PC) (human) (UniProt P22223); test: Multispot ECL (MSD), antigen spotted on plate, Fab […]; blank spot 276
[2] = target: rHuman P-Cadherin/Fc Chimera, CF (R&D Systems Cat#861-PC) (human) (UniProt P22223); test: Multispot ECL (MSD), antigen spotted on plate, Fab 36.3 nM; blank spot 314
[3] = target: rHuman P-Cadherin/Fc Chimera, CF (R&D Systems Cat#861-PC) (human) (UniProt P22223); test: Multispot ECL (MSD), antigen spotted on plate, Fab 580 nM; blank spot 679
[4] = target: rHuman P-Cadherin/Fc Chimera, CF (R&D Systems Cat#861-PC) (human) (UniProt P22223); test: Multispot ECL (MSD), antigen spotted on plate, Fab […]; blank spot 357
[5] = target: rHuman Notch-1/Fc Chimera, CF (R&D Systems Cat#3647-TK) (human) (UniProt P46531); test: ECL multispot (MSD) assay, antigen spotted on plate, 20 nM Fab
[6] = target: rHuman ErbB2/Fc Chimera, CF (R&D Systems Cat#1129-ER) (human) (UniProt P04626); test: ECL multispot (MSD) binding assay, antigen spotted on plate, Fab 0.04 uM
[7] = target: Recombinant Human DLL4 (R&D Systems Cat#1506-D4/CF) (human) (UniProt Q9NR61); test: ELISA, DLL4 coated on plate, Fab at 0.74 nM
[8] = target: Recombinant Human DLL4 (R&D Systems Cat#1506-D4/CF) (human) (UniProt Q9NR61); test: ELISA, DLL4 coated on plate, Fab at 2.22 nM
[9] = target: Recombinant Human DLL4 (R&D Systems Cat#1506-D4/CF) (human) (UniProt Q9NR61); test: ELISA, DLL4 coated on plate, Fab at […]
[10] = target: Recombinant Human DLL4 (R&D Systems Cat#1506-D4/CF) (human) (UniProt Q9NR61); test: ELISA, DLL4 coated on plate, Fab at 20 nM
[11] = target: Recombinant Human DLL4 (R&D Systems Cat#1506-D4/CF) (human) (UniProt Q9NR61); test: ECL (MSD) binding assay, immobilised DLL4

- ELISA signal [7]: 0
- ELISA signal [8]: 0
- ELISA signal [9]: 0
- ELISA signal [10]: 0.003
B6: Fab VH5-51_IGHD5-18*01>3_IGHJ4*01 G100K/G104T G24L/S28R/G35V (H:KT LRV) & V3-4_IGLJ1*01 M94R/S96M (L:RM) (Fab, V domains shown)
VH: EVQLVQSGAEVKKPGESLKISCKLSGYRFTSYWIVWVRQMPGKGLEWMGIIYPGDSDTRYSPSFQGQVTISADKSISTAYLQWSSLKASDTAMYYCARRKYSYTYDYFDYWGQGTLVTVSS
VL: QTVVTQEPSFSVSPGGTVTLTCGLSSGSVSTSYYPSWYQQTPGQAPRTLIYSTNTRSSGVPDRFSGSILGNKAALTITGAQADDESDYYCVLYRGMGISYVFGTGTKVTVL

- ECL signal [11]: 889
B8: Fab VH5-51_IGHD5-18*01>3_IGHJ4*01 G100K/G104T G24L/S28R/G35V & V3-4_IGLJ1*01 M94R/S96M (L:RM) (Fab, V domains shown)
VH: B6 VH
VL: B6 VL

- ECL signal [11]: 530
B9: Fab VH5-51_IGHD5-18*01>3_IGHJ4*01 G100K/G104T S28R & V3-4_IGLJ1*01 M94R/S96M (L:RM) (Fab, V domains shown)
VH: B6 VH with L24G, V35G
VL: B6 VL

More lines, now with the values behind:

B1: Fab VH4-34_IGHD7-27*01_IGHJ4*01 & V1-4_IGLJ4*01 (Fab, V domains shown)
VH: QVQLQQWGAGLLKPSETLSLTCAVYGGSFSGYYWSWIRQPPGKGLEWIGEINHSGSTNYNPSLKSRVTISVDTSKNQFSLKLSSVTAADTAVYYCARANWGDYFDYWGQGTLVTVSS
VL: QSALTQPASVSGSPGQSITISCTGTSSDVGGYNYVSWYQQHPGKAPKLMIYEVSNRPSGVSNRFSGSKSGNTASLTISGLQAEDEADYYCSSYTSSSTLFVFGGGTQLIIL
- ECL signal at 9.1 nM Fab [1]: 589
- ECL signal at 36.3 nM Fab [2]: 684
- ECL signal at 580 nM Fab [3]: 2240
- ECL signal at 145 nM Fab [4]: 850

B2: Fab VH3-23_IGHD2-21*01>3_IGHJ6*01 H100E/S108P/Y113G T58A & V2-13_IGLJ2*01 (Fab, V domains shown)
VH: EVQLLESGGGLVQPGGSLRLSCAASGFTFSSYAMSWVRQAPGKGLEWVSSISGSGGSAYYADSVKGRFTISRDNSKNTLYLQMNSLRAEDTAVYYCAKEEIVVVIAIPYYYYGYGMDVWGQGTLVTVSS
VL: SSELTQDPAVSVALGQTVRITCQGDSLRSYYASWYQQKPGQAPVLVIYGKNNRPSGIPDRFSGSSSGNTASLTITGAQAEDEADYYCNSRDSSGNHLVVFGGGTKLTVL
- ECL signal/blank ratio (read-out not given) [5]: 3.1

B3: Fab VH3-23_IGHD2-21*01>3_IGHJ6*01 H100E/S108P/Y113G D62A & V2-13_IGLJ2*01 (Fab, V domains shown)
VH: B2 VH with A58T, D62A
VL: B2 VL
- ECL signal/blank ratio (read-out not given) [5]: 3.5

B4: Fab VH5-51_IGHD5-18*01>3_IGHJ4*01 G100K/G104T (H:KT) & V3-4_IGLJ1*01 L92A (Fab, V domains shown)
VH: B6 VH with L24G, R28S, V35G
VL: B6 VL with L92A, R94M, M96S
- ECL signal [6]: 1370

B5: Fab VH5-51_IGHD5-18*01>3_IGHJ4*01 G100K/G104T G24A/S28R/G35V (H:KT ARV) & V3-4_IGLJ1*01 M94R/S96M (L:RM) (Fab, V domains shown)
VH: B6 VH with L24A
VL: B6 VL
- ELISA signal [7]: 0
- ELISA signal [8]: 0
- ELISA signal [9]: 0.034
- ELISA signal [10]: 0.006

B7: Fab VH5-51_IGHD5-18*01>3_IGHJ4*01 G100K/G104T G24A/S28R/G35V & V3-4_IGLJ1*01 M94R/S96M (L:RM) (Fab, V domains shown)
VH: B6 VH with L24A
VL: B6 VL
- ECL signal [11]: 1200
